Results taken from patent US8597645.

T1: Cell permeable caspase inhibitor containing the sequence IETD, P08620
T1 chain: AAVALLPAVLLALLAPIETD

T2: β-catenin (immunoprecipitated), P35222
T2 chain: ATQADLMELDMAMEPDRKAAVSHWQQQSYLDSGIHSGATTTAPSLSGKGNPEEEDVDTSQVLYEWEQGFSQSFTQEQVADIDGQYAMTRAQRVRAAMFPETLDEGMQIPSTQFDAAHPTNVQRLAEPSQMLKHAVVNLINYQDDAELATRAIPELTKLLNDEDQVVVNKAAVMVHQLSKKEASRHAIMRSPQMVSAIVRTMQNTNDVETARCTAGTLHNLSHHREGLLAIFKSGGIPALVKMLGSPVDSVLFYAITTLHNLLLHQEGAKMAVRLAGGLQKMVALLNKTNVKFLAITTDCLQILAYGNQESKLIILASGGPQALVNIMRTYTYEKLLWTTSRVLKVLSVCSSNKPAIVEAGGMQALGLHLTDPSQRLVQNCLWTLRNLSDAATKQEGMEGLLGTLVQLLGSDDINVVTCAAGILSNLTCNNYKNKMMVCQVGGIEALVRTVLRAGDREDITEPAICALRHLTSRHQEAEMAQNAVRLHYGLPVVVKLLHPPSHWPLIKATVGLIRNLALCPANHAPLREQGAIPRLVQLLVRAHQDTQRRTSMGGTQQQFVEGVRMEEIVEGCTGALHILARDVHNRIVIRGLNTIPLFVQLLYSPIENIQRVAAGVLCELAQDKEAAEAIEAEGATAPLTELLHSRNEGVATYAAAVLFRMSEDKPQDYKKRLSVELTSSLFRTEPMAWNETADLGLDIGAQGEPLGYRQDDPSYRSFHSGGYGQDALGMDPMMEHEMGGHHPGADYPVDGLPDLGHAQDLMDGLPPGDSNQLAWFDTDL

T3: p120^CTN (immunoprecipitated), O60716
T3 chain: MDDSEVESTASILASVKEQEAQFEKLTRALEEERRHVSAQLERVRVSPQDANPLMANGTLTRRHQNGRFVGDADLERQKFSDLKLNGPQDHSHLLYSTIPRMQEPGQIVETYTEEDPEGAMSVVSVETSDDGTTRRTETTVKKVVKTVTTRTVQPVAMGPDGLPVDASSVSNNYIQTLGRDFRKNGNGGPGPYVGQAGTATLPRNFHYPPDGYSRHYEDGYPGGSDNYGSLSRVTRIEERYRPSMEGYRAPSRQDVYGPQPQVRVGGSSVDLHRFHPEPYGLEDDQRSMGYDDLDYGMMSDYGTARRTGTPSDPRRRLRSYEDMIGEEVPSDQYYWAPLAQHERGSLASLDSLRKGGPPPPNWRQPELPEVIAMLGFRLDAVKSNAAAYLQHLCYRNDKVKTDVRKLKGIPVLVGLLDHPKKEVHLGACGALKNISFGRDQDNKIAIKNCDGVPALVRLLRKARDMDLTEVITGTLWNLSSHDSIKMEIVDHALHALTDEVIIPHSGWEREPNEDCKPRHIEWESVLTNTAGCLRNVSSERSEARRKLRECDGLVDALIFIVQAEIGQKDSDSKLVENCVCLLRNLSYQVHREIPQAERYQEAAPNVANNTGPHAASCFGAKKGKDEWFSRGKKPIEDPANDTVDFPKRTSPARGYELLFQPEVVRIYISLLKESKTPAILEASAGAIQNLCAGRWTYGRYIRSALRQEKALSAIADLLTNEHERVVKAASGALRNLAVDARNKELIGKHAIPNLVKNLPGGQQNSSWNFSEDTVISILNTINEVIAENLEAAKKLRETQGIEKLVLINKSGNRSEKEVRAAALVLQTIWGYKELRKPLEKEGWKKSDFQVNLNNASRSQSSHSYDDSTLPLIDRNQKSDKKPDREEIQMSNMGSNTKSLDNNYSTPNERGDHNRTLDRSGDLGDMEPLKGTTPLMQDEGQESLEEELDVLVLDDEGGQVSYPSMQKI

B1: Caspase-8 (endogenous, in melanocytes and melanoma cells) (protein)
chain: MDFSRNLYDIGEQLDSEDLASLKFLSLDYIPQRKQEPIKDALMLFQRLQEKRMLEESNLSFLKELLFRINRLDLLITYLNTRKEEMERELQTPGRAQISAYRVMLYQISEEVSRSELRSFKFLLQEEISKCKLDDDMNLLDIFIEMEKRVILGEGKLDILKRVCAQINKSLLKIINDYEEFSKERSSSLEGSPDEFSNGEELCGVMTISDSPREQDSESQTLDKVYQMKSKPRGYCLIINNHNFAKAREKVPKLHSIRDRNGTHLDAGALTTTFEELHFEIKPHDDCTVEQIYEILKIYQLMDHSNMDCFICCILSHGDKGIIYGTDGQEAPIYELTSQFTGLKCPSLAGKPKVFFIQACQGDNYQKGIPVETDSEEQPYLEMDLSSPQTRYIPDEADFLLGMATVNNCVSYRNPAEGTWYIQSLCQSLRERCPRGDDILTILTEVNYEVSNKDDKKNMGKQMPQPTFTLRKKLVFPSD
B2: Recombinant caspase-8 (protein)
chain: SESQTLDKVYQMKSKPRGYCLIINNHNFAKAREKVPKLHSIRDRNGTHLDAGALTTTFEELHFEIKPHDDCTVEQIYEILKIYQLMDHSNMDCFICCILSHGDKGIIYGTDGQEAPIYELTSQFTGLKCPSLAGKPKVFFIQACQGDNYQKGIPVETDSEEQPYLEMDLSSPQTRYIPDEADFLLGMATVNNCVSYRNPAEGTWYIQSLCQSLRERCPRGDDILTILTEVNYEVSNKDDKKNMGKQMPQPTFTLRKKLVFPSD

Legend:
[1] = molecular target: T1, Cell permeable caspase inhibitor …
[2] = molecular target: T2, β-catenin (immunoprecipitated), P35222
[3] = molecular target: T3, p120^CTN (immunoprecipitated), O60716

Row | Protein | Proteolytic processing of caspase-8 (immunoblot) [1] | In vitro cleavage of the immunoprecipitated protein [2] | In vitro cleavage of the immunoprecipitated protein [3]
1 | B1 | Treatment of cells with a cell permeable inhibitor of caspase-8 prevented its proteolytic processing |  | 
2 | B2 |  | Cleavage of immunoprecipitated β-catenin and p120^CTN by recombinant caspase-8 in vitro also was not demonstrated | Cleavage of immunoprecipitated β-catenin and p120^CTN by recombinant caspase-8 in vitro also was not demonstrated
